{
  "source": "patent US20250255929A1",
  "about": "“METHODS FOR REDUCING RISKS ASSOCIATED WITH HEART FAILURE AND FACTORS ASSOCIATED THEREWITH” (Stealth BioTherapeutics Inc., priority 2012, published 2025)",
  "origin": "cited, not measured here",
  "system": "several mammalian cell types",
  "settings": "energy-independent manner, Zhao et al., J. Pharmacol Exp Ther., 304:425-432, 2003; cited from earlier work",
  "note": "Square brackets hold non-standard residues; d marks the D form. Ends that are not written are not given here. Dmt = Cc1cc(O)cc(C)c1C[C@H](N)C(=O)O",
  "data": [
    {"substance": "2′,6′-Dmt-D-Arg-Phe-Lys-NH2 ([Dmt][dR]FK-NH2)", "values": [
      {"measurement": "penetration of the plasma membrane", "value": "readily penetrates the plasma membrane"}
    ]}
  ]
}
